Laboratory results taken from patent publication US20090117111A1 (XOMA TECHNOLOGY, published 2009).

Legend:
human FcγRIIIa-158V = molecular target: T1, human FcγRIIIa-158V (human, UniProt P08637 17-208); assay: Biacore (SPR)
T1 construct: also called FcγRIIIa aa158V allele

human FcγRIIIa-158F [1] = molecular target: T2, human FcγRIIIa-158F (human, UniProt P08637 17-208, limits assumed); assay: Biacore (SPR)
T2 construct: also called FcγRIIIa aa158F allele

human FcγRIIIa-158F [2] = molecular target: T2, human FcγRIIIa-158F; assay: Biacore (SPR); ratio of KD against rituximab

T2 sequence (P08637 17-208 limits assumed): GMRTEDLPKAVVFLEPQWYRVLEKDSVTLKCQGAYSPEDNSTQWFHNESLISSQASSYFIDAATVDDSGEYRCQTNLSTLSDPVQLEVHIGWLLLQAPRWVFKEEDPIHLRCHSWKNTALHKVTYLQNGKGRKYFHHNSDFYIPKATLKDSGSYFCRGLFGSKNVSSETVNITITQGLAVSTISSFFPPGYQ
T1 sequence (P08637 17-208 F176V): as the sequence (P08637 17-208 limits assumed) above, with F160V counted along it

B1: monoclonal antibody CHIR-12.12 (antibody, human IgG1, kappa)
heavy: not shown
light: DIVMTQSPLSLTVTPGEPASISCRSSQSLLYSNGYNYLDWYLQKPGQSPQVLISLGSNRASGVPDRFSGSGSGTDFTLKISRVEAEDVGVYYCMQARQTPFTFGPGTKVDIRRTVAAPSVFIFPPSDEQLKSGTASVVCLLNNFYPREAKVQWKVDNALQSGNSQESVTEQDSKDSTYSLSSTLTLSKADYEKHKVYACEVTHQGLSSPVTKSFNRGEC
notes: Fully human IgG1 kappa anti-CD40 antibody; also called CH12.12
For B1, the Kd (human FcγRIIIa-158V) was 492 nM, the Kd (human FcγRIIIa-158F [1]) was 2800 nM and the “fold higher affinity compared with rituximab” value (human FcγRIIIa-158F [2]) was 4.6 fold.
